Source: patent publication US20110190477A1 (G2 INFLAMMATION, published 2011)

Columns and labels:
[1] = molecular target: T1, human C5a receptor (human, UniProt P21730 1-350); test: flow cytometry of bound hAb-Q (anti-hIgG-FITC) on human neutrophils, post-chemotaxis lower chamber
T1 construct: On human neutrophils, L1.2/hC5aR transfectants or neutrophils of hC5aR knock-in mice; also called hC5aR; C5aR1
T1 chain: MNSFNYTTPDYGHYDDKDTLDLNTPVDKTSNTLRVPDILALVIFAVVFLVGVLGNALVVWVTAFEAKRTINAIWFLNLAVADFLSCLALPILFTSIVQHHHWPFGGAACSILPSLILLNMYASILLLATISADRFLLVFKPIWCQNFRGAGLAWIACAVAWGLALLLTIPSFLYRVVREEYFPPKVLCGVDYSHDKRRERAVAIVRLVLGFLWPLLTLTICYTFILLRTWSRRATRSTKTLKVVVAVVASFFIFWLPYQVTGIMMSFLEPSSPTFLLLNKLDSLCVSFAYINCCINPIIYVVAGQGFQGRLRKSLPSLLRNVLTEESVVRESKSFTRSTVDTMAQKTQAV
Protocol: (§1) The FACSCalibur flow cytometer was set up with compensation parameters established for channel FL-1. Samples were acquired to exclude dead cells and debris. Neutrophils were identified based on FSC and SSC. The level of bound hAb-Q (anti-hIgG-FITC) or free C5aR (hAb-Q-FITC) was determined by determining the FITC (FL-1) mean fluorescence intensity (MFI) of the neutrophils in a sample.
(§2) Four experiments were carried out. Briefly, purified neutrophils isolated from the venous blood of a healthy volunteer were preincubated for 10 min with hAb-Q at concentrations ranging from 0.001 to 100 μg/ml. A small aliquot of this mix was taken to determine the amount of antibody bound receptor (% receptor occupancy) and the remainder was placed in the upper chamber of a transwell plate. C5a (10 nM) was placed in the lower chamber. After 30 min incubation, the number of cells that had migrated into the lower chamber was determined using FACS. The amount of bound antibody on the neutrophils in both the lower and upper chambers at the end of migration was also determined, using FITC-labelled anti-hIgG and flow cytometry. The level of free receptor (no bound antibody) was determined in one experiment by incubating the neutrophils with FITC-labelled hAb-Q before and after migration.

[2] = molecular target: T1, human C5a receptor; test: PK/PD model (NONMEM) fitted to serum concentration and receptor occupancy in hC5aR transgenic mice, toxicology study column
Text: NONMEM VI (non-linear mixed effects modelling software) with first order conditional estimation (FOCE) was used for modelling, and S-PLUS® 8.0 (Insigthful) was used for graphics and data handling. Evaluation of—and discrimination between—intermediate models was based on objective function values and standard graphical evaluation methods. In terms of objective function value, changes in this value were assumed to be chi-squared distributed (for nested models), and criteria for expanding the model were defined and used accordingly.
Toxicokinetics from the toxicology study in transgenic mice and PK/PD data from the pharmacology study was integrated to assess the relationship between pharmacokinetics and occupancy. […] This is consistent with other studies, observing higher clearance for high doses, due to saturation of the FcRN receptor (Hansen and Balthasar, 2002).

[3] = molecular target: T2, chimeric receptor 6. HmHH (human; mouse, UniProt P30993 93-111); test: flow cytometry on transiently transfected L1.2 cells
T2 construct: range 93-111; Transiently expressed on mouse L1.2 cells
T2 sequence: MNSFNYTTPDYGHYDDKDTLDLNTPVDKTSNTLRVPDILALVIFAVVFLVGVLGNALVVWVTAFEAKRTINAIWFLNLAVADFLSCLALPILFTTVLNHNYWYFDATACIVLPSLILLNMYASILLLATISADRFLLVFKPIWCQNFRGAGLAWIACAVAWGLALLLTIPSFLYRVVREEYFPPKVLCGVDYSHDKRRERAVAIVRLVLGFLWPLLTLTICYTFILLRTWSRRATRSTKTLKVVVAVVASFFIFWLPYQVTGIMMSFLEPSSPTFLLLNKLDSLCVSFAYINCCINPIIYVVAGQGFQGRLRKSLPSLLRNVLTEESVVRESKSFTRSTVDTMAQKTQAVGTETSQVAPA
Protocol: A series of chimeric receptors comprising segments of mouse and human C5aR were constructed to identify the region of the C5a receptor that the antibodies bound. […] Each recombinant vector (5 μg diluted in DMEM) encoding a different chimeric receptor was transfected into 5×10⁵ mouse L1.2 cells using Lipofectamine 2000 (Invitrogen). Cells were grown in DMEM or RPMI (Invitrogen) plus 10% foetal bovine serum (Hyclone). After 24 hours or 48 hours, cells were harvested by centrifugation at 1,500 rpm for 5 min and resuspended in FACS buffer (phosphate buffered saline plus 2% bovine serum albumin). For staining with hAb-Q, 0.5×10⁵ transfected cells were incubated with 5 or 10 μg/ml antibody in a volume of 50 μl per well at 4° C. for 20 minutes. Cells were pelleted as above and rinsed 3 times with 150 μl FACS buffer before addition of 50 μl FITC-conjugated anti-human IgG diluted 1:200 or 1:300 (Sigma, F1641). This mix was incubated for 20 min at 4° C. before cells were pelleted, washed with FACS buffer 3 times and finally resuspended in 150-200 μl FACS buffer. Samples were analysed on a FACS Calibur (BD Biosciences).
To confirm that the humanised antibody hAb-Q, which was derived from mouse mAb 7F3 by CDR grafting, and therefore should contain the same antigen-binding site, had the same staining pattern as 7F3, transiently transfected cells expressing the different chimeric human/mouse C5aR were stained with hAb-Q and analysed by flow cytometry. The pattern of staining by hAb-Q was identical to that observed with 7F3. There was no staining by the secondary antibody (anti-hIgG-FITC) alone.

[4] = molecular target: T1, human C5a receptor; test: flow cytometry of bound hAb-Q (anti-hIgG-FITC) on human neutrophils, pre-chemotaxis samples
Protocol: as §1, §2

[5] = molecular target: T1, human C5a receptor; test: cell-based or functional assay

B1: humanized anti-C5aR antibody hAb-Q (antibody, human IgG4 S228P, kappa)
light: DVVMTQSPLSLPVTLGEPASISCRSSQSLVHSNGNTYLHWYLQKPGQSPQLLIYKVSNRFSGVPDRFSGSGSGTDFTLKISRVEAEDVGVYFCSQSTLVPLTFGQGTKLEIKRTVAAPSVFIFPPSDEQLKSGTASVVCLLNNFYPREAKVQWKVDNALQSGNSQESVTEQDSKDSTYSLSSTLTLSKADYEKHKVYACEVTHQGLSSPVTKSFNRGEC
heavy: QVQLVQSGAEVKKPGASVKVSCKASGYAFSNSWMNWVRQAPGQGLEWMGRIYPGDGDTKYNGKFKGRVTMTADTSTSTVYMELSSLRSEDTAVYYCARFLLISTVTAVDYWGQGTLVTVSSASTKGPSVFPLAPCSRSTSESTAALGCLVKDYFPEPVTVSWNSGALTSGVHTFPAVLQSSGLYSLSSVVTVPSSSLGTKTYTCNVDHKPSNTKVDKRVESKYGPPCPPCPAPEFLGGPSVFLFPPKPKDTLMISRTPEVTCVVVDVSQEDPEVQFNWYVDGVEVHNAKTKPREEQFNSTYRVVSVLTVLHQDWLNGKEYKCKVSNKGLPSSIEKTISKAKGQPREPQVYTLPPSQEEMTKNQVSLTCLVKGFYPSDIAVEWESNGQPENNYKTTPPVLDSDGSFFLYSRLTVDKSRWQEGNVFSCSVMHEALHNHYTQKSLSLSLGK
notes: IgG4 with the Ser228Pro mutation; also called antibody Q; anti-C5aR ab
With B1 the EC50 [1] was 1.1 µg/mL, the Kd [2] was 0.175 µg/mL and the binding result [3] was “binds”. The EC50 [4] was 0.3 µg/mL and the “Ab conc. tested but not effective at blocking Ca2+-flux (human neutrophils, 1 nM C5a)” value [5] was 0.5 µg/mL.
